{"source": "patent US20180245121A1", "key": {"[1]": {"target": "FKBP-GDH(155-454AA) (Acinetobacter calcoaceticus) (UniProt P62942)", "sequence (P62942 2-108, tags or fused parts left off)": "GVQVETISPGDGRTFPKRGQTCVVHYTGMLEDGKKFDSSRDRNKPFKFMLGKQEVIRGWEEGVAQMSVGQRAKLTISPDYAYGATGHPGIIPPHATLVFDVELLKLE", "assay": "cell-based or functional assay"}, "[2]": {"target": "FKBP-GDH(155-454AA) (Acinetobacter calcoaceticus) (UniProt P62942)", "assay": "self-reconstitution of split GDH fragments without ligand; method not described (GDH activity assay implied)"}}, "data": [{"substance": "GDH(1-153AA)-FRB (from UniProt P42345 2021-2113)", "values": [{"measurement": "GDH activity; observed rates on rapamycin titration fitted to a quadratic equation", "setting": "[1]", "value": 11, "unit": "nM"}, {"measurement": "Kd", "setting": "[2]", "value": "50 to 100", "unit": "nM"}]}]}
